In PMC6856630:
pKd: −log10 of the molar value.

Key:
Assay in all cases: BLI; Octet RED384; biotinylated neurexin LNS2 on streptavidin tips, Nxph in solution; 25°C, PBS pH 7.4, 50 nM TCEP, 1% BSA; global fit, double reference subtraction
[1] = target: Nrxn1 LNS2^SS2AB+ (I401Q), AviTag-His, biotinylated (BLI) (mouse)
[2] = target: Nrxn1 LNS2^SS2AB+, AviTag-His, biotinylated (BLI) (mouse)
[3] = target: Nrxn2 LNS2^SS2− (I401Q), AviTag-His, biotinylated (BLI) (mouse)
[4] = target: Nrxn2 LNS2^SS2−, AviTag-His, biotinylated (BLI) (mouse)
[5] = target: Nrxn3 LNS2^SS2− (I401Q), AviTag-His, biotinylated (BLI) (mouse)
[6] = target: Nrxn3 LNS2^SS2−, AviTag-His, biotinylated (BLI) (mouse)

Chain of Nxph1-2XFLAG-His (mature rat neurexophilin-1, 118-271, glycosylated) (Q63366 118-271): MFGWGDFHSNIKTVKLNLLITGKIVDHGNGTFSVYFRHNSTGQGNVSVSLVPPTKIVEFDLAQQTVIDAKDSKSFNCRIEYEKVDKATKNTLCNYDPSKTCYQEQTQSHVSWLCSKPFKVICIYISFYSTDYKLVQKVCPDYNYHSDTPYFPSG
Chain of Nxph3-2XFLAG-His (rat neurexophilin-3, 50-252) (Q9Z2N5 50-252): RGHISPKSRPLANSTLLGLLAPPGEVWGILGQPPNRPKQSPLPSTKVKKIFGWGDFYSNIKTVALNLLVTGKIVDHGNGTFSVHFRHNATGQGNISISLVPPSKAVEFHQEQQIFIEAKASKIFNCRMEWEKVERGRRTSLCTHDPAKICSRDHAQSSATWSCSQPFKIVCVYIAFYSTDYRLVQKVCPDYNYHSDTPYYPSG

pKd [1]	koff [1] [s⁻¹]	kon [1] [M⁻¹ s⁻¹]	pKd [2]	koff [2] [s⁻¹]	kon [2] [M⁻¹ s⁻¹]	pKd [3]	koff [3] [s⁻¹]	kon [3] [M⁻¹ s⁻¹]	pKd [4]	koff [4] [s⁻¹]	kon [4] [M⁻¹ s⁻¹]	pKd [5]	koff [5] [s⁻¹]	kon [5] [M⁻¹ s⁻¹]	pKd [6]	koff [6] [s⁻¹]	kon [6] [M⁻¹ s⁻¹]	Substance
6.30	0.00034	674	7.36	9.4e-05	2170	4.41	0.0025	381	6.91	6.9e-05	554	2.71	0.012	10.5	6.69	9.2e-05	444	Nxph1-2XFLAG-His (mature rat neurexophilin-1, 118-271, glycosylated) (from UniProt Q63366 118-271) (ligand)
						5.88	0.00044	350	6.67	6.7e-05	302	5.46	0.00053	153	6.75	3.1e-05	178	Nxph3-2XFLAG-His (rat neurexophilin-3, 50-252) (from UniProt Q9Z2N5 50-252) (ligand)
